Common to all, as to experiment: homogeneous cell binding assay on transfected HEK293-6e cells as in Example 8 (data not shown)
The target in test [1] is T1, Human HER2 (human, UniProt P04626 23-1255).
T1 construct: whole, on cells
The protocol:
(§1) Binding of constructs to target was assessed in HEK293-6e cells transiently expressing the target of interest.
(§2) Parental cells were maintained in 250 mL Erlenmeyer flasks (Corning, 431144) at 37° C., 5% CO2 in a rotating humidified incubator at 115 rpm. HEK293-6e cells were re-suspended to 1×10⁶ cells/mL in fresh Freestyle media before transfection. […] The DNA vectors that were used to express targets of interest were pTT5 vectors with full length targets of interest including Human Dectin-1, Human DEC205, Human CD40, Human HER2, Human ROR1 and mock vector containing GFP. The cells were incubated for 24 hours at 37° C. and 5% CO2 in a rotating humidified incubator at 115 rpm.
(§3) Construct samples were prepared at starting concentrations of 40 nM final in FACS buffer or 1×PBS pH 7.4 (Gibco, 1001023)+2% FBS in Eppendorf tubes. Samples were titrated in duplicate 1:4 down to 0.04 nM directly in the 384-well black optical bottom assay plate (Thermo Fisher, 142761). HEK293-6e cells expressing target of interest were harvested and re-suspended in FACS buffer at 10,000 cells per 30 μl. To visualize cell nuclei as a focusing channel, Vybrant™ DyeCycle™ Violet nuclear stain (Life Tech, V35003) was added to cells at 2 μM final concentration. To detect binding of test construct sample to cells, Goat anti-Human IgG Fc A647 (Jackson ImmunoResearch, 115-605-071) was added to cells at 0.6 μg/mL final. The cells were vortexed briefly to mix and plated at 10,000 cells/well. The plate was incubated at room temperature for 3 hours before scanning. Data analysis was performed on the CellInsight™ with the HCS high content screening platform (Thermo Scientific), using BioApplication “CellViability” with a 10× objective. Samples were scanned on the 385 nm channel to visualize nuclear staining and channel 650 nm to assess cell binding. The mean object average fluorescence intensity of A647 was measured on channel 2 to determine binding intensity on all cell conditions.

In test [2] the target is T2, Human CD40 (human, UniProt P25942 21-277).
T2 construct: whole, on cells
T2 sequence (P25942 21-277): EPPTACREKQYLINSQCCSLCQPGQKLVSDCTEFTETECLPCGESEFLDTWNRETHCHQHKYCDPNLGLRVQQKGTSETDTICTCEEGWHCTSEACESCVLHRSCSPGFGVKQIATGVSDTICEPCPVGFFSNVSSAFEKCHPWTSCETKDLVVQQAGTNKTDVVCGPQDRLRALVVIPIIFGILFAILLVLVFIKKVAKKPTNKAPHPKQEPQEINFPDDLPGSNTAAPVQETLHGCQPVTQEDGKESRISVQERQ
The procedure:
as §1, §2, §3

Test [3] concerns the target T3, Human DEC205 (human, UniProt O60449 28-1722).
T3 construct: whole, on cells
The procedure:
as §1, §2, §3

T3 sequence (O60449 28-1722): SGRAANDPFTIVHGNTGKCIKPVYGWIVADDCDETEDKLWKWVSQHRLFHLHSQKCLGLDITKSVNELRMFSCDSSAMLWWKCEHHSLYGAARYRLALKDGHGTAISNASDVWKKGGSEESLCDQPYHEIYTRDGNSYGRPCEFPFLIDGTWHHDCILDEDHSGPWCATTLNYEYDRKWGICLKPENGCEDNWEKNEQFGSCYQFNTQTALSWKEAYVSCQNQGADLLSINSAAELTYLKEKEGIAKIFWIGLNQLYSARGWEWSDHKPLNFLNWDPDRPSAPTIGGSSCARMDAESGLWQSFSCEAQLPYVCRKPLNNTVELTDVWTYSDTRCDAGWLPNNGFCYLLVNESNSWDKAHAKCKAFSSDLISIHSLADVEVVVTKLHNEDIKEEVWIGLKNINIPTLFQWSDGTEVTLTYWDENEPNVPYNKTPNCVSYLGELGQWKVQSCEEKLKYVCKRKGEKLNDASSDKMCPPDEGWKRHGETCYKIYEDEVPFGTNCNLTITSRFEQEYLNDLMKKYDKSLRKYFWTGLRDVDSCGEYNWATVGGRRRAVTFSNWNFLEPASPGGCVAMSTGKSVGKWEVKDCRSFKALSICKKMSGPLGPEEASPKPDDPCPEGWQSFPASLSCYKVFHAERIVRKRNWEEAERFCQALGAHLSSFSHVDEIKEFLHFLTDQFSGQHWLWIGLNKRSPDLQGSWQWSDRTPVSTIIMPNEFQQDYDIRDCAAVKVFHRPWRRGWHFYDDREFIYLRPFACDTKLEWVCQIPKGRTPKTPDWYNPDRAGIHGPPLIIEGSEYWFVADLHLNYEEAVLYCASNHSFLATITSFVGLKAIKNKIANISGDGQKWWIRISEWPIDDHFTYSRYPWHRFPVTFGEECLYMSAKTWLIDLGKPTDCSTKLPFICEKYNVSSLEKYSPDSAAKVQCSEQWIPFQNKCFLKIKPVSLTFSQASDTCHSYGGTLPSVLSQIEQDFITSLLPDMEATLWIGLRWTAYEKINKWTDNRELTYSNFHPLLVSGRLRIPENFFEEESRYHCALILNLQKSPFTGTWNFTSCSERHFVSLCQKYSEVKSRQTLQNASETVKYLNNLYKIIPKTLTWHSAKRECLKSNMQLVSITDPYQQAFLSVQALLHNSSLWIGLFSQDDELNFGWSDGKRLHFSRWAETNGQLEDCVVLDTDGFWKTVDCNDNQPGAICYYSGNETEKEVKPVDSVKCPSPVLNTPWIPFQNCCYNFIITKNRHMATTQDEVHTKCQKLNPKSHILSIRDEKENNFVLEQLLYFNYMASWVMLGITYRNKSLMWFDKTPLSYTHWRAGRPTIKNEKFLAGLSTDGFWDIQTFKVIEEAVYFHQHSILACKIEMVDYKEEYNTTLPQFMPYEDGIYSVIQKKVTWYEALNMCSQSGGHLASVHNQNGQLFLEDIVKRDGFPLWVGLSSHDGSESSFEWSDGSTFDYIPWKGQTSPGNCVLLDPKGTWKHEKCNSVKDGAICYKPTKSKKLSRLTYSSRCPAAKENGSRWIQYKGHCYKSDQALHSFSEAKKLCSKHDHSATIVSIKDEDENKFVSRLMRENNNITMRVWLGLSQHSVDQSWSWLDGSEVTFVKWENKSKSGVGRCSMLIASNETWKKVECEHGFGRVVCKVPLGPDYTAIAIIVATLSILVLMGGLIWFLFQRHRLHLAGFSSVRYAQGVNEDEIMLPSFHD

B1: construct 18532 (CD40 X HER2; 12E12, Pertuzumab; Fab x scFv) (bispecific antibody, human IgG1, kappa, L234A L235A)
heavy: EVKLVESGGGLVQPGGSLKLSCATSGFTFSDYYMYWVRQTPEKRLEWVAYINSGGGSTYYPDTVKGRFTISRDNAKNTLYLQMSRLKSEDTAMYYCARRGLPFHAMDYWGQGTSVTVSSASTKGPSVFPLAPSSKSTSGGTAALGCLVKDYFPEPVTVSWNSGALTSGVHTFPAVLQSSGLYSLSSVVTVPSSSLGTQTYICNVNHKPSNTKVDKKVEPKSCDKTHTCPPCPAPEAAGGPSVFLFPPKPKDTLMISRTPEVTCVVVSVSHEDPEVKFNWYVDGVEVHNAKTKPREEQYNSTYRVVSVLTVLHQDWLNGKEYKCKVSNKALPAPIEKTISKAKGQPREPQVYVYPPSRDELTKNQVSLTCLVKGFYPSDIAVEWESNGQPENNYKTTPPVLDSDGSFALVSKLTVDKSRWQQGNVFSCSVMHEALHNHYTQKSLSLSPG
light: DIQMTQTTSSLSASLGDRVTISCSASQGISNYLNWYQQKPDGTVKLLIYYTSILHSGVPSRFSGSGSGTDYSLTIGNLEPEDIATYYCQQFNKLPPTFGGGTKLEIKRTVAAPSVFIFPPSDEQLKSGTASVVCLLNNFYPREAKVQWKVDNALQSGNSQESVTEQDSKDSTYSLSSTLTLSKADYEKHKVYACEVTHQGLSSPVTKSFNRGEC
scFv: DIQMTQSPSSLSASVGDRVTITCKASQDVSIGVAWYQQKPGKAPKLLIYSASYRYTGVPSRFSGSGSGTDFTLTISSLQPEDFATYYCQQYYIYPATFGQGTKVEIKVEGGSGGSGGSGGSGGVDEVQLVESGGGLVQPGGSLRLSCAASGFTFADYTMDWVRQAPGKGLEWVGDVNPNSGGSIYNQRFKGRFTFSVDRSKNTLYLQMNSLRAEDTAVYYCARNLGPSFYFDYWGQGTLVTVSSAAEPKSSDKTHTCPPCPAPEAAGGPSVFLFPPKPKDTLMISRTPEVTCVVVSVSHEDPEVKFNWYVDGVEVHNAKTKPREEQYNSTYRVVSVLTVLHQDWLNGKEYKCKVSNKALPAPIEKTISKAKGQPREPQVYVLPPSRDELTKNQVSLLCLVKGFYPSDIAVEWESNGQPENNYLTWPPVLDSDGSFFLYSKLTVDKSRWQQGNVFSCSVMHEALHNHYTQKSLSLSPG
notes: also called v18532; Her2×CD40
Consider B1, for which the binding result in test [1] and in test [2] was “binds” each time.

B2: construct 18529 (DEC-205 X HER2; 3G9, Pertuzumab; Fab x scFv) (bispecific antibody, human IgG1, kappa, L234A L235A)
heavy: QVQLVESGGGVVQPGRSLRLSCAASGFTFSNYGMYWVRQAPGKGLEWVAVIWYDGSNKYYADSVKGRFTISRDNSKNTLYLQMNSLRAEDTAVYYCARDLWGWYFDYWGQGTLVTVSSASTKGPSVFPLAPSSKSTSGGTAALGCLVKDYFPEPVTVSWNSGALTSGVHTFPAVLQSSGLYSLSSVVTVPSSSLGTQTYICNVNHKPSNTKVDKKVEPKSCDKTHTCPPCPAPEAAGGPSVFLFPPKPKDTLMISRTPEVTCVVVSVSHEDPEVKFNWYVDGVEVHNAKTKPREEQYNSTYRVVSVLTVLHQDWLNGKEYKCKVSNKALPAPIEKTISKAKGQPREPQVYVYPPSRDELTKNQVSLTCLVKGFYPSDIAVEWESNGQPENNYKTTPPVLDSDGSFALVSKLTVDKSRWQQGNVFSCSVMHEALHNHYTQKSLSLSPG
light: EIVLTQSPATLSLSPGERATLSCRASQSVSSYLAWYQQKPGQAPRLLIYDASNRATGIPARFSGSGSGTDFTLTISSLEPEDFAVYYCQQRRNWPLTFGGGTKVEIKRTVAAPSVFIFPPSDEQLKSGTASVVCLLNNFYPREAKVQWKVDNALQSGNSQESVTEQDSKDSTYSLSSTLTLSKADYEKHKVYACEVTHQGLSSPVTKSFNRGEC
scFv: B1 scFv
notes: Three polypeptides A, B and C; also called Her2×Dec205
Turning to B2, the binding result in test [3] and in test [1] was “binds” each time.

(Values after patent US20200048371A1 (Zymeworks, published 2020).)
